Data taken from patent US20240192215A1 (E AND S HEALTHCARE, published 2024).

Assays:
[1] = target: T1, Peptide_004 (human); experiment: peptide microarray
T1 construct: 15-mer on microarray; not native form, recombinant insert region
T1 peptide: AADVHSQHHHHHHHH
Protocol: (§1) 5, 1, 0.2, 0.04, 0.008 and 0.0016 μg/mL serial dilutions were incubated on a single multi-well microarray slide at 30° C. for 1 hour. The slide includes 21 individual mini-arrays (one mini-array per sample dilution).
(§2) DyLight 650 was used as a label. False-positive binding to a peptide was evaluated by performing one additional control incubation in which only a secondary antibody was applied on the same microarray slide. Before performing each step, the microarrays were washed with a washing buffer.
(§3) MMC2 is the same as the average value of all three cases on a microarray except when the coefficient of variation (CV), which is the standard deviation divided by the average value, is larger than 0.5. In this case, the average of the two closest values (MC2) is assigned to MMC2. The thick black line in the heatmap indicates the culture of a control only using a secondary anti-mouse IgG antibody. The culture of individual antibody samples is indicated by a thin blue line. […] However, since Peptide_004 and Peptide_005 are not native forms, these peptides were excluded from an epitope candidate group.

[2] = target: T2, Peptide_005 (human); experiment: peptide microarray
T2 construct: 15-mer on microarray; not native form, recombinant insert region
T2 peptide: ADVHSQHHHHHHHHV
Protocol: as §1, §2, §3

[3] = target: T3, Peptide_012 (human); experiment: peptide microarray
T3 construct: 15-mer on microarray; not native form, includes recombinant insert region
T3 peptide: HHHHHHHVKQIESKT
Protocol: as §1, §2, §3

[4] = target: T4, Peptide_018 (human); experiment: peptide microarray
T4 construct: 15-mer on microarray; not native form, includes recombinant insert region; also called HVKQIESKTAFQEAL
T4 peptide: HVKQIESKTAFQEAL
Protocol: as §1, §2, §3

[5] = target: T5, Peptide_010; experiment: peptide microarray, anti-mouse IgG DyLight 650, MMC2 heatmap (Example 17)
T5 peptide: QHHHHHHHHVKQIES
Protocol: as §1, §2
(§4) To visualize the obtained results and compare binding regions across individual cultures, as shown in FIGS. 21A to 21D, heatmap diagrams were calculated. In FIGS. 21A to 21D, the fluorescence intensity is expressed in a color-coded manner, white indicates no binding, and red indicates strong binding. For all evaluations, the MMC2-value of the average pixel fluorescence for each peptide was calculated.

[6] = target: T6, Peptide_011; experiment: as above
T6 peptide: HHHHHHHHVKQIESK
Protocol: as §1, §2, §4

[7] = target: T7, Peptide_017; experiment: as above
T7 peptide: HHVKQIESKTAFQEA
Protocol: as §1, §2, §4

[8] = target: T8, Peptide_027; experiment: as above
T8 peptide: AFQEALDAAGDKLVV
Protocol: as §1, §2, §4

[9] = target: T9, Peptide_033; experiment: as above
T9 peptide: DAAGDKLVVVDFSAT
Protocol: as §1, §2, §4

[10] = target: T10, Peptide_035; experiment: as above
T10 peptide: AGDKLVVVDFSATWC
Protocol: as §1, §2, §4

[11] = target: T11, Peptide_037; experiment: as above
T11 peptide: DKLVVVDFSATWCGP
Protocol: as §1, §2, §4

[12] = target: T12, Peptide_039; experiment: as above
T12 peptide: LVVVDFSATWCGPCK
Protocol: as §1, §2, §4

[13] = target: T13, Peptide_043; experiment: as above
T13 peptide: DFSATWCGPCKMIKP
Protocol: as §1, §2, §4

[14] = target: T14, Peptide_061; experiment: as above
T14 peptide: SLSEKYSNVIFLEVD
Protocol: as §1, §2, §4

[15] = target: T15, Peptide_063; experiment: as above
T15 peptide: SEKYSNVIFLEVDVD
Protocol: as §1, §2, §4

[16] = target: T16, Peptide_073; experiment: as above
T16 construct: also called EVDVDDCQDVASECE
T16 peptide: EVDVDDCQDVASECE
Protocol: as §1, §2, §4

[17] = target: T17, Peptide_079; experiment: as above
T17 peptide: CQDVASECEVKCMPT
Protocol: as §1, §2, §4

[18] = target: T18, Peptide_081; experiment: as above
T18 peptide: DVASECEVKCMPTFQ
Protocol: as §1, §2, §4

[19] = target: T19, Peptide_082; experiment: as above
T19 peptide: VASECEVKCMPTFQF
Protocol: as §1, §2, §4

[20] = target: T20, Peptide_083; experiment: as above
T20 peptide: ASECEVKCMPTFQFF
Protocol: as §1, §2, §4

[21] = target: T21, Peptide_088; experiment: as above
T21 peptide: VKCMPTFQFFKKGQK
Protocol: as §1, §2, §4

[22] = target: T22, Peptide_091; experiment: as above
T22 peptide: MPTFQFFKKGQKVGE
Protocol: as §1, §2, §4

[23] = target: T23, Peptide_098; experiment: as above
T23 peptide: KKGQKVGEFSGANKE
Protocol: as §1, §2, §4

[24] = target: T24, Peptide_106; experiment: as above
T24 construct: also called FSGANKEKLEATINE
T24 peptide: FSGANKEKLEATINE
Protocol: as §1, §2, §4

[25] = target: T25, Peptide_108; experiment: as above
T25 peptide: GANKEKLEATINELV
Protocol: as §1, §2, §4

[26] = target: T2, Peptide_005; experiment: as above
Protocol: as §1, §2, §4

B1: monoclonal antibody B266-1 (antibody, human IgG1)
light: QIVLTQSPAIMSASPGEKVTMTCSASSRISYMYWYQQKPGTSPKRWIYDTSKLASGVPARFSGSGSGTSYSLTISTMEAEDAATYYCHQRSSYPTFGAGTKLELKSVAAPSVFIFPPSDEQLKSGTASVVCLLNNFYPREAKVQWKVDNALQSGNSQESVTEQDSKDSTYSLSSTLTLSKADYEKHKVYACEVTHQGLSSPVTKSFNRGEC
heavy: not shown
notes: B266 with the Fc part changed to human IgG1; also called B266-1 (Trx1-hIgG1); B266-1 (hTrx1-hIgG1)
- signal, fold of the average background level [1]: ~8 fold
- signal, fold of the average background level [2]: ~8 fold

B2: monoclonal antibody B264 (antibody, mouse IgG1, kappa, V domains shown)
VH: QVQLQQSGAELARPGASVKMSCKASGYTFTSYTMHWVKQRPGQGLEWIGYINPTSDYTNYNQKFKDKATLTADKSSSTAYMQLSSLTSEDSAVYFCASEGGFLYYFDYWGQGTTLTVSS
VL: DVLMTQTPLSLPVSLGDQASISCRSSQSIVHSNGNTYLEWYLQKPGQSPKLLIYKVSNRFSGVPDRFSGSGSGTDFTLKISRVEAEDLGVYYCFQGSHVPYTFGGGTKLEIKR
notes: also called AB264; B264 (Trx1-mIgG1)
- signal, fold of the average background level [3]: ~7 fold
- signal, fold of the average background level [4]: ~7 fold
- binding result [5]: no binding (tested: 5 ug/mL)
- binding result [6]: no binding (tested: 5 ug/mL)
- binding result [7]: binds
- binding result [8]: no binding (tested: 5 ug/mL)
- binding result [9]: no binding (tested: 5 ug/mL)
- binding result [10]: no binding (tested: 5 ug/mL)
- binding result [11]: no binding (tested: 5 ug/mL)
- binding result [12]: binds
- binding result [13]: no binding (tested: 5 ug/mL)
- binding result [14]: no binding (tested: 5 ug/mL)
- binding result [15]: no binding (tested: 5 ug/mL)
- binding result [16]: no binding (tested: 5 ug/mL)
- binding result [17]: no binding (tested: 5 ug/mL)
- binding result [18]: no binding (tested: 5 ug/mL)
- binding result [19]: no binding (tested: 5 ug/mL)
- binding result [20]: no binding (tested: 5 ug/mL)
- binding result [21]: no binding (tested: 5 ug/mL)
- binding result [22]: no binding (tested: 5 ug/mL)
- binding result [23]: no binding (tested: 5 ug/mL)
- binding result [24]: no binding (tested: 5 ug/mL)
- binding result [25]: no binding (tested: 5 ug/mL)
- binding result [26]: no binding (tested: 5 ug/mL)
